Data published in PMC4385471 (Molecular cell, 2015).

T1: Maltose Binding Protein (MBP) tagged IpaJΔ50 (Shigella flexneri, UniProt Q54150 51-259)
T1 sequence: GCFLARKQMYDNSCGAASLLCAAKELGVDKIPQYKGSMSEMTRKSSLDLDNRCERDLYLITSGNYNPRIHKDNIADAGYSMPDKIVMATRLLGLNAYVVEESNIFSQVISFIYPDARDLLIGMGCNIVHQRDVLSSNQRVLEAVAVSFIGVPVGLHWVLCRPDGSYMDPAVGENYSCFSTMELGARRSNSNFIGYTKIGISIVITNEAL

B1: GST-ARF5Δ17 (domain or fragment)
chain: not shown
B2: GST-ARF6Δ13 (domain or fragment, UniProt P62330 14-175, looked up)
chain: MRILMLGLDAAGKTTILYKLKLGQSVTTIPTVGFNVETVTYKNVKFNVWDVGGQDKIRPLWRHYYTGTQGLIFVVDCADRDRIDEARQELHRIINDREMRDAIILIFANKQDLPDAMKPHEIQEKLGLTRIRDRNWYVQPSCATSGDGLYEGLTWLTSNYKS
B3: Glutathione S-transferase (GST) tagged ARF1ΔN17 (domain or fragment)
chain: not shown
B4: MBP-GGA1(76-215) (domain or fragment, UniProt Q9UJY5 76-215, looked up)
chain: SCGKRFHDEVGKFRFLNELIKVVSPKYLGSRTSEKVKNKILELLYSWTVGLPEEVKIAEAYQMLKKQGIVKSDPKLPDDTTFPLPPPRPKNVIFEDEEKSKMLARLLKSSHPEDLRAANKLIKEMVQEDQKRMEKISKRV

Legend:
[1] = molecular target: T1, Maltose Binding Protein (MBP) tagged …; experiment: pull-down
[2] = molecular target: T1, Maltose Binding Protein (MBP) tagged …; experiment: homologous competition assay
[3] = molecular target: B3; experiment: homologous competition assay

Binder	binding result [1]	also measured
B1	binds	–
B2	binds	–
B3	–	Kd [2]: 280 nM
B4	–	Kd [3]: 1810 nM
